The values that follow come from article PMC4646777 (Science Advances, 2015).

Changes are numbered by the printed parent chain.

For data set [1], the target named is TraM-NINJA EAR fusion protein (tetrameric), untagged (not stated | Arabidopsis). In words: SEC.
Data set [2] addresses H6-tagged OsTPR2 N-terminal domain (TPD), TPR2(1–210) (rice) (UniProt Q5NBT9). Briefly: AlphaScreen or HTRF.
Data set [3] concerns the molecule itself. In words: SEC. (In general: In gel filtration, larger molecules generally elute earlier.)
Data set [4] deals with the molecule itself. In words: crystal structure.
For data set [5], the target named is T1, Gal4 DBD-NINJA full length (Arabidopsis, UniProt Q9SV55 1-425).
T1 sequence (looked up): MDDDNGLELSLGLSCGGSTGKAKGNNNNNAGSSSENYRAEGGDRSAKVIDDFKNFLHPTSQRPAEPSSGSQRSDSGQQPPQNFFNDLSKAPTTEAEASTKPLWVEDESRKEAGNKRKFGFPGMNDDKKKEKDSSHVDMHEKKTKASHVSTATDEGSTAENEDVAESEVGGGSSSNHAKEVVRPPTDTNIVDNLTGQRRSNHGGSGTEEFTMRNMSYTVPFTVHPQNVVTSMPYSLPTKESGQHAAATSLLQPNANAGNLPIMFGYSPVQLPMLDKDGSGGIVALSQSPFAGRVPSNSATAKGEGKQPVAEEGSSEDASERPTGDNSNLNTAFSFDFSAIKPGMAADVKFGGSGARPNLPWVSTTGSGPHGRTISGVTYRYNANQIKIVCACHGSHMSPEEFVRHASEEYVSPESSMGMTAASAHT
In words: two-hybrid.

In data set [6] the target is T2, H6-tagged OsTPR2 N-terminal domain (TPD), TPR2(1–210) (rice, UniProt Q5NBT9 1-210).
T2 sequence (looked up): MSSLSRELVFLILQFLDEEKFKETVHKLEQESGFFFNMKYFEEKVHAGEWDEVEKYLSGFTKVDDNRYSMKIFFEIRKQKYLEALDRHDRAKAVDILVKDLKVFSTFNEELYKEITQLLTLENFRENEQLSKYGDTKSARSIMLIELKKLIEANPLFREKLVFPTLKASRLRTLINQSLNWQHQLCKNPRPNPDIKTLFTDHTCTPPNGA
In words: AlphaScreen or HTRF. (In general: Bead proximity is the source of the signal in Alpha formats.)

A word on the stoichiometry N: it is a count of units in the complex or per binding partner. The term IC50 denotes the point on the concentration scale where inhibition reaches its midpoint. The low end stands for inhibition by little substance, the high end for a need for much substance.

In turn, “TraM-NINJA EAR fusion protein (tetrameric), untagged” returned a stoichiometry N in data set [1] of 4. In data set [2], this molecule returned an IC50 of 0.16 µM.

B1: Arabidopsis TPL TOPLESS domain (TPD), TPL(1–209), tag removed (domain or fragment, UniProt Q94AI7 1-209, looked up)
chain: MSSLSRELVFLILQFLDEEKFKETVHKLEQESGFFFNMKYFEDEVHNGNWDEVEKYLSGFTKVDDNRYSMKIFFEIRKQKYLEALDKHDRPKAVDILVKDLKVFSTFNEELFKEITQLLTLENFRENEQLSKYGDTKSARAIMLVELKKLIEANPLFRDKLQFPTLRNSRLRTLINQSLNWQHQLCKNPRPNPDIKTLFVDHSCGPPNG
In the case of B1, the “stoichiometry N” value in data set [3] amounted to 4.

B2: Arabidopsis TPR1 TOPLESS domain (TPD), TPR1(1–209), tag removed (domain or fragment, UniProt Q0WV90 1-209, looked up)
chain: B1 chain with K87R, N168T, G205R, P206L, G209D
As to B2, the “stoichiometry N” value in data set [3] turned out to be 4.

B3: Arabidopsis TPR4 TOPLESS domain (TPD), TPR4(1–209), tag removed (domain or fragment, UniProt Q27GK7 1-209, looked up)
chain: MSSLSRELVFLILQFLDEEKFKDTVHRLEKESGFFFNMRYFEDSVTAGEWDDVEKYLSGFTKVDDNRYSMKIFFEIRKQKYLEALDKKDHAKAVDILVKELKVFSTFNEELFKEITMLLTLTNFRENEQLSKYGDTKSARGIMLGELKKLIEANPLFRDKLQFPSLKNSRLRTLINQSLNWQHQLCKNPRPNPDIKTLFVDHTCGHPNG
Turning to B3, the “stoichiometry N” value in data set [3] was determined as 4.

B4: OsTPR2 TOPLESS domain (TPD), TPR2(1–210), tag removed (domain or fragment, rice, UniProt Q5NBT9 1-210, looked up)
chain: T2 sequence (looked up)
For B4, the “stoichiometry N” value in data set [4] is 4.

B5: Arabidopsis TPR2 TOPLESS domain (TPD), TPR2(1–209), tag removed (domain or fragment, UniProt Q9LRZ0 1-209, looked up)
chain: MSSLSRELVFLILQFLDEEKFKESVHKLEQESGFFFNIKYFEEKALAGEWDEVEKYLSGFTKVDDNRYSMKIFFEIRKQKYLEALDRNDRAKAVEILAKDLKVFATFNEELYKEITQLLTLENFRENEQLSKYGDTKSARSIMYTELKKLIEANPLFREKLAFPSFKASRLRTLINQSLNWQHQLCKNPRPNPDIKTLFLDHSCSPSNG
As for B5, in data set [3], the “stoichiometry N” value is 4.

B6: VP16-OsTPR2 full length (natural protein, rice, UniProt Q5NBT9 1-1129, looked up)
chain: MSSLSRELVFLILQFLDEEKFKETVHKLEQESGFFFNMKYFEEKVHAGEWDEVEKYLSGFTKVDDNRYSMKIFFEIRKQKYLEALDRHDRAKAVDILVKDLKVFSTFNEELYKEITQLLTLENFRENEQLSKYGDTKSARSIMLIELKKLIEANPLFREKLVFPTLKASRLRTLINQSLNWQHQLCKNPRPNPDIKTLFTDHTCTPPNGARASPVSVPLAAVPKAGGTYPPLTAHTPFQPPPAGPSLAGWMANAAAATSSVPSAVVAASSLPVPPNQAVPIMKRPTITDYQSAESEQLMKRLRPSGHGVDEATYPAPIPQPLWSVEDLPRTVACTLSQGSSVTSMDFHPTRHTLLLVGSTNGEITLWEVGMRERLFSKPFKIWDIQACSPQFQSVAKESSISINRVTWSPDGDLIGVAFAKHLIHLHAYQQPNETRQVLEIDAHSGAVNDIAFSRPNKQLCVVTCGDDRLIKVWDMHGQKLFSFEGHEAPVYSICPHHKESIQFIFSTSLDGKIKAWLYDHMGSRVDYDAPGKWCTTMLYSADGTRLFSCGTSKDGDSYLVEWNESEGSIKRTYSGFRKKSAGVGVVQFDTAQNHILAAGEDNQIKFWDVDNTTMLSSTEADGGLPGLPRLRFNKEGNLLAVTTVDNGFKILANADGLRTLRAFGNRPFEAFRSQYEASSMKVSGAPVVAGISPNIGRMDHIDRNSPAKPSPIMNGGDPASRSIDIKPRISEERPDKAKPWELMEVLNAQQCRVATMPETPDQASKVVRLLYTNSGVGLLALGSNAIQRLWKWARNDQNPSGKATANVVPQHWQPNSGLVMQNDTADTNPEDAVPCIALSKNDSYVMSACGGKVSLFNMMTFKVMTTFMPPPPASTFLAFHPQDNNIIAIGMEDSTIHIYNVRVDEVKTRLKGHQRRITGLAFSNNLQILVSSGADAQLCVWATDTWEKKKSVAIQMPAGKTPSGDTWVQFNSDWSRLLVVHETQLAIYDASKMERIYQWIPQDALSAPISHASYSRNSQLVFAAFTDGNIGIFDVENLRLRCRIAPPAYLSSAAINSNPSVYPLVVAAHPQESNQFAVGLSDGSVKVIEPLESEGKWGTTPPTENGVPNGRTSTSSATSNPAADQIQR
On to B6, for which the “luciferase reporter activation above background” value in data set [5] was approximately 2 fold.

B7: Arabidopsis TPR3 TOPLESS domain (TPD), TPR3(1–209), tag removed (domain or fragment, UniProt Q84JM4 1-209, looked up)
chain: MSSLSRELVFLILQFLEEEKFKESVHRLEKESGFFFNTKYFDEKVLAGEWDDVETYLSGFTKVDDNRYSMKIFFEIRKQKYLEALDRQEKAKAVEILVQDLRVFSTFNEELYKEITQLLTLQNFRENEQLSKYGDTKTARGIMLGELKKLIEANPLFRDKLMFPTLRSSRLRTLINQSLNWQHQLCKNPRPNPDIKTLFTDHTCTLPNG
On to B7, for which, in data set [3], the “stoichiometry N” value is 4.

With DNGLELSLGLSC [monomeric NINJA EAR motif peptide (12 amino acids, untagged)], in data set [6], the IC50 was 38 µM.

B8: OsTPL TOPLESS domain (TPD), TPL(1–209), tag removed (domain or fragment, rice, UniProt Q0J7U6 1-209, looked up)
chain: MSSLSRELVFLILQFLDEEKFKETVHKLEQESAFYFNMKHFEDLVQGGEWDEVEKYLSGFTKVEDNRYSMKIFFEIRKQKYLEALDRHDRAKAVEILVKDLKVFASFNEELFKEITQLLTLENFRQNEQLSKYGDTKSARNIMLMELKKLIEANPLFRDKLNFPPFKVSRLRTLINQSLNWQHQLCKNPRPNPDIKTLFTDHSCAAPTN
B8: in data set [3], the “stoichiometry N” value was 4.

B9: OsTPR1 TOPLESS domain (TPD), TPR1(1–209), tag removed (domain or fragment, rice, UniProt Q10NY2 1-209, looked up)
chain: MSSLSRELVFLILQFLDEEKFKETVHKLEQESGFYFNMKYFEDEVINGNWDEVERYLGGFTKVDDNRYSMKIFFEIRKQKYLEALDKHDRSKAVEILVKDLKVFASFNEELFKEITQLLTLENFRENEQLSKYGDTKSARAIMLVELKKLIEANPLFRDKLQFPNLKSSRLRTLINQSLNWQHQLCKNPRPNPDIKTLFVDHSCGQPNG
As to B9, the “stoichiometry N” value in data set [3] was found to be 4.
